The text below walks through data of the supplement of paper PMC9112550, “Optimization of the antimicrobial peptide Bac7 by deep mutational scanning” (BMC Biology, 2022).

The data set deals with Escherichia coli TOP10. Briefly: shrunken log2 fold change of peptide-encoding DNA abundance (4.5 h post-induction vs induction); higher = less antimicrobial activity (less host growth inhibition). The conditions noted are these: time post-induction: 4.5 h; library: site-saturation at positions 5, 18, 19, 20.
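Further: peptides expressed intracellularly from a pBAD plasmid library in pooled LB shake-flask culture, induced with 0.3% L-arabinose, DNA abundance read by NGS, three biological replicates, DESeq2 with apeglm shrinkage.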

As for RRIRLRPPRLPRPRPRPGVEPRP, the “shrunken log2 fold change” value is 0.0194.

Regarding RRIRARPPRLPRPRPRPQEGPRP, the “shrunken log2 fold change” value was -0.0912.

Consider RRIRHRPPRLPRPRPRPYIHPRP, for which the “shrunken log2 fold change” value is -0.322.

Take RRIRNRPPRLPRPRPRPGGYPRP: the “shrunken log2 fold change” value was -0.0538.

RRIRSRPPRLPRPRPRPCMDPRP: the “shrunken log2 fold change” value was -0.0717.

Turning to RRIRPRPPRLPRPRPRPYACPRP, the “shrunken log2 fold change” value was -0.921.

Regarding RRIRTRPPRLPRPRPRPKGGPRP, the “shrunken log2 fold change” value is 0.279.

Turning to RRIRGRPPRLPRPRPRPGTVPRP, the “shrunken log2 fold change” value came out at 0.206.

With RRIRWRPPRLPRPRPRPRRQPRP, the “shrunken log2 fold change” value was -0.0653.

With RRIRCRPPRLPRPRPRPMGSPRP, the “shrunken log2 fold change” value worked out at 0.0655.

On to RRIRHRPPRLPRPRPRPGIIPRP, for which the “shrunken log2 fold change” value was -0.0698.

As to RRIRCRPPRLPRPRPRPHVDPRP, the “shrunken log2 fold change” value was -0.617.

Turning to RRIRYRPPRLPRPRPRPGVEPRP, the “shrunken log2 fold change” value is 0.0346.

On to RRIRVRPPRLPRPRPRPFVYPRP, for which the “shrunken log2 fold change” value is -0.439.

Take RRIRMRPPRLPRPRPRPPYFPRP: the “shrunken log2 fold change” value turned out to be 0.104.

For the sequence RRIRPRPPRLPRPRPRPHFGPRP, the “shrunken log2 fold change” value turned out to be 0.0675.

Turning to RRIRWRPPRLPRPRPRPRKWPRP, the “shrunken log2 fold change” value was determined as 0.526.

For the sequence RRIRERPPRLPRPRPRPWQVPRP, the “shrunken log2 fold change” value was determined as 0.0371.

In the case of RRIRHRPPRLPRPRPRPKLTPRP, the “shrunken log2 fold change” value was -0.0624.

Turning to RRIRARPPRLPRPRPRPHCSPRP, the “shrunken log2 fold change” value was -0.131.

Take RRIRCRPPRLPRPRPRPVYKPRP: the “shrunken log2 fold change” value is -0.595.

For the sequence RRIRFRPPRLPRPRPRPPAAPRP, the “shrunken log2 fold change” value came out at 1.32.

As to RRIRRRPPRLPRPRPRPKSYPRP, the “shrunken log2 fold change” value stood at 0.171.

For the sequence RRIRWRPPRLPRPRPRPMPGPRP, the “shrunken log2 fold change” value was found to be 0.0623.

In the case of RRIRHRPPRLPRPRPRPKDLPRP, the “shrunken log2 fold change” value was -0.0584.

For the sequence RRIRERPPRLPRPRPRPSQKPRP, the “shrunken log2 fold change” value was 0.0497.

Consider RRIRFRPPRLPRPRPRPVFLPRP, for which the “shrunken log2 fold change” value is -0.327.

Turning to RRIRMRPPRLPRPRPRPNMRPRP, the “shrunken log2 fold change” value worked out at 1.6.

For RRIRHRPPRLPRPRPRPYEDPRP, the “shrunken log2 fold change” value is -0.336.

Turning to RRIRFRPPRLPRPRPRPDRIPRP, the “shrunken log2 fold change” value came to 0.0156.

Consider RRIRSRPPRLPRPRPRPHKDPRP, for which the “shrunken log2 fold change” value is -0.534.

As to RRIRDRPPRLPRPRPRPFPYPRP, the “shrunken log2 fold change” value is -0.136.

Take RRIRWRPPRLPRPRPRPPHEPRP: the “shrunken log2 fold change” value is 0.0628.

In the case of RRIRYRPPRLPRPRPRPYIAPRP, the “shrunken log2 fold change” value is -1.23.

For RRIRVRPPRLPRPRPRPNVIPRP, the “shrunken log2 fold change” value was -0.329.

For the sequence RRIRHRPPRLPRPRPRPIHRPRP, the “shrunken log2 fold change” value is -0.147.

Consider RRIRHRPPRLPRPRPRPPAGPRP, for which the “shrunken log2 fold change” value turned out to be 0.344.

On to RRIRVRPPRLPRPRPRPYGLPRP, for which the “shrunken log2 fold change” value was -0.00518.

As for RRIRFRPPRLPRPRPRPEECPRP, the “shrunken log2 fold change” value is -0.0175.

In the case of RRIRWRPPRLPRPRPRPHFKPRP, the “shrunken log2 fold change” value was -0.179.

Consider RRIRKRPPRLPRPRPRPLRVPRP, for which the “shrunken log2 fold change” value was 1.04.

For the sequence RRIRLRPPRLPRPRPRPYVHPRP, the “shrunken log2 fold change” value was -0.783.

Consider RRIRPRPPRLPRPRPRPYTLPRP, for which the “shrunken log2 fold change” value was -0.54.

On to RRIRMRPPRLPRPRPRPCFKPRP, for which the “shrunken log2 fold change” value amounted to 0.145.

With RRIRWRPPRLPRPRPRPACIPRP, the “shrunken log2 fold change” value was determined as 0.0736.

As for RRIRQRPPRLPRPRPRPFKWPRP, the “shrunken log2 fold change” value was -0.185.

With RRIRNRPPRLPRPRPRPFNTPRP, the “shrunken log2 fold change” value is -0.765.

With RRIRCRPPRLPRPRPRPVDTPRP, the “shrunken log2 fold change” value is -0.0338.

Regarding RRIRCRPPRLPRPRPRPYNSPRP, the “shrunken log2 fold change” value was -0.325.

Turning to RRIRQRPPRLPRPRPRPSDLPRP, the “shrunken log2 fold change” value was -0.333.

As for RRIRHRPPRLPRPRPRPMNIPRP, the “shrunken log2 fold change” value is -0.214.

In the case of RRIRARPPRLPRPRPRPHMAPRP, the “shrunken log2 fold change” value is -0.183.

Turning to RRIRHRPPRLPRPRPRPPIAPRP, the “shrunken log2 fold change” value was -0.0868.

For the sequence RRIRTRPPRLPRPRPRPTVPPRP, the “shrunken log2 fold change” value amounted to 0.0189.

Turning to RRIRQRPPRLPRPRPRPKFPPRP, the “shrunken log2 fold change” value came out at 0.118.

As to RRIRHRPPRLPRPRPRPGKNPRP, the “shrunken log2 fold change” value is -0.0444.

As to RRIRVRPPRLPRPRPRPAFNPRP, the “shrunken log2 fold change” value was -0.416.

Consider RRIRNRPPRLPRPRPRPMNMPRP, for which the “shrunken log2 fold change” value was -0.356.

RRIRYRPPRLPRPRPRPIQKPRP: the “shrunken log2 fold change” value is -0.00992.

Regarding RRIRRRPPRLPRPRPRPTALPRP, the “shrunken log2 fold change” value stood at 0.554.

RRIRLRPPRLPRPRPRPMAKPRP: the “shrunken log2 fold change” value was found to be 0.109.

Regarding RRIRIRPPRLPRPRPRPRAYPRP, the “shrunken log2 fold change” value was -0.315.

For RRIRYRPPRLPRPRPRPTKSPRP, the “shrunken log2 fold change” value is -0.517.

For the sequence RRIRYRPPRLPRPRPRPWMFPRP, the “shrunken log2 fold change” value was -0.273.

As to RRIRRRPPRLPRPRPRPLHPPRP, the “shrunken log2 fold change” value amounted to 0.437.

Consider RRIRYRPPRLPRPRPRPENRPRP, for which the “shrunken log2 fold change” value was found to be 0.0112.

In the case of RRIRNRPPRLPRPRPRPPNAPRP, the “shrunken log2 fold change” value came to 0.313.

As to RRIRARPPRLPRPRPRPDNWPRP, the “shrunken log2 fold change” value is 0.283.

Take RRIRCRPPRLPRPRPRPQQDPRP: the “shrunken log2 fold change” value was -0.046.

With RRIRMRPPRLPRPRPRPEMPPRP, the “shrunken log2 fold change” value was found to be 0.791.

On to RRIRKRPPRLPRPRPRPDGSPRP, for which the “shrunken log2 fold change” value amounted to 0.132.

For RRIRDRPPRLPRPRPRPAQVPRP, the “shrunken log2 fold change” value is -0.286.

For the sequence RRIRYRPPRLPRPRPRPPLSPRP, the “shrunken log2 fold change” value is -0.283.

Turning to RRIRCRPPRLPRPRPRPWWMPRP, the “shrunken log2 fold change” value was -0.0465.

As for RRIRWRPPRLPRPRPRPLRTPRP, the “shrunken log2 fold change” value is 1.39.

With RRIRYRPPRLPRPRPRPMNTPRP, the “shrunken log2 fold change” value is -1.25.

As for RRIRERPPRLPRPRPRPKVWPRP, the “shrunken log2 fold change” value turned out to be 0.332.

Take RRIRMRPPRLPRPRPRPRECPRP: the “shrunken log2 fold change” value was determined as 0.0611.

As to RRIRPRPPRLPRPRPRPCIFPRP, the “shrunken log2 fold change” value was -0.359.

As for RRIRARPPRLPRPRPRPKDGPRP, the “shrunken log2 fold change” value was 0.298.

As to RRIRFRPPRLPRPRPRPLETPRP, the “shrunken log2 fold change” value turned out to be 0.105.

For RRIRGRPPRLPRPRPRPHPAPRP, the “shrunken log2 fold change” value turned out to be 0.853.

In the case of RRIRMRPPRLPRPRPRPYMYPRP, the “shrunken log2 fold change” value amounted to 0.0981.

As to RRIRARPPRLPRPRPRPNRMPRP, the “shrunken log2 fold change” value is 0.0574.

Turning to RRIRIRPPRLPRPRPRPPDHPRP, the “shrunken log2 fold change” value was -0.134.

As to RRIRARPPRLPRPRPRPYVAPRP, the “shrunken log2 fold change” value was -0.35.

As to RRIRFRPPRLPRPRPRPMRAPRP, the “shrunken log2 fold change” value is 1.02.

Turning to RRIRCRPPRLPRPRPRPMAIPRP, the “shrunken log2 fold change” value is -0.132.

On to RRIRLRPPRLPRPRPRPIFAPRP, for which the “shrunken log2 fold change” value worked out at 0.331.

With RRIRNRPPRLPRPRPRPDSNPRP, the “shrunken log2 fold change” value is -0.0886.

On to RRIRHRPPRLPRPRPRPTVHPRP, for which the “shrunken log2 fold change” value is -0.755.
